Measurements as given in US20190062438A1 (CSL, published 2019).

Experiments:
[1] = molecular target: T1, shCD131 F103A (human, UniProt P32927 17-438); experiment: SPR, Fab over captured mutant
T1 construct: C-terminal 6xHis
T1 sequence: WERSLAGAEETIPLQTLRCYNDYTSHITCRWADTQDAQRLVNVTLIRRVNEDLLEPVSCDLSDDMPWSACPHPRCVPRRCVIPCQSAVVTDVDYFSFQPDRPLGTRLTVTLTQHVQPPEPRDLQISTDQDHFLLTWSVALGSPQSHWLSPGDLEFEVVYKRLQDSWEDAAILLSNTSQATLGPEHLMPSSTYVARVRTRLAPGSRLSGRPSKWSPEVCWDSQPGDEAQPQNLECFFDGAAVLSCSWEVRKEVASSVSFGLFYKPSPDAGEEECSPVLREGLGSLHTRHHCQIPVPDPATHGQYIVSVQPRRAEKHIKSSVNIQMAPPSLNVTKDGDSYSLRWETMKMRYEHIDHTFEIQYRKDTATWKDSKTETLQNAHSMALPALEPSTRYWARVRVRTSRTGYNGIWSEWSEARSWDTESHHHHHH
Description: (§1) As shβc is a dimer, kinetics assays were performed with shβc captured on the sensor surface, and purified Fab injected as the analyte. Avidity effects were avoided by the use of Fab rather than whole IgG.
(§2) shCD131 was captured on spots 1 and 5 of each flow cell for 2 minutes at a concentration of 0.4 μg/ml. […] For some analysis purified Fab was injected over each flow cell for 3 minutes and dissociation was monitored for a further 10 minutes. Regeneration of the surface was performed after each cycle with a 40 second injection of 25 mM glycine, pH 2.0. The analysis was performed with Fabs at several concentrations between 100 and 0.31 nM, with each concentration analyzed twice and in random order. The analysis was performed at a flow rate of 30 μl/min in HBS-EP buffer (10 mM Hepes, 150 mM NaCl, 3 mM EDTA, 0.005% Tween 20, pH 7.4) at 37° C. Responses from spots 2 and 4 of each flow cell, (in which shβc was not captured, but otherwise treated identically), were subtracted from those of spots 1 and 5 respectively to produce reference subtracted data. Reference subtracted responses from a blank injection comprising buffer alone were subtracted from the resultant sensorgrams to produce double referenced data suitable for kinetic analysis. Double-referenced sensorgrams were fitted using non-linear regression to a model describing 1:1 kinetics, including a term for mass transport limitation. The Rₘₐₓ value was fitted locally to account for slight deviations in the level of sCD131 captured, with association rate (kₐ), dissociation rate (kd) and equilibrium dissociation constant (KD) fitted globally.
(§3) Mapping of the shCD131 epitope was performed by measurement of the affinity of Fabs for various alanine point mutants of shCD131 essentially as described above, with the following exceptions. Each shCD131 mutant was captured for 120 seconds at concentrations between 1 and 5 μg/ml. For kinetic analysis, purified recombinant Fabs were injected for 2 minutes, and dissociation was monitored for a further 2 minutes. […] Fab concentrations ranged from 16 μM to 3.9 nM in two-fold dilutions.

[2] = molecular target: T2, shCD131 I338A (human, UniProt P32927 17-438); experiment: SPR, Fab over captured mutant
T2 construct: C-terminal 6xHis; also called 1338A
T2 sequence: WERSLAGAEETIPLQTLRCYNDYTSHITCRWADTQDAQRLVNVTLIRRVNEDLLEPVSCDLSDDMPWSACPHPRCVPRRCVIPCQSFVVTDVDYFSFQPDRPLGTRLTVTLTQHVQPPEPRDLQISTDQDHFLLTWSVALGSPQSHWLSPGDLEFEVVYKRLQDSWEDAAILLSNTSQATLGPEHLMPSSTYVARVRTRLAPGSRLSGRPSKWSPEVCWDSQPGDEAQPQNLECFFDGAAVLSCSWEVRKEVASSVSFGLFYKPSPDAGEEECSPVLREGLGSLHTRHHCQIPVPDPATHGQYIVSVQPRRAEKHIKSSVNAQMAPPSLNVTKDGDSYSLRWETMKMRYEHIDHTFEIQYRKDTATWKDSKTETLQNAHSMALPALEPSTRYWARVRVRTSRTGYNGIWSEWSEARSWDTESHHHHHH
Description: as §1, §2, §3

[3] = molecular target: T3, shCD131 Y365A (human, UniProt P32927 17-438); experiment: SPR, Fab over captured mutant
T3 construct: C-terminal 6xHis
T3 sequence: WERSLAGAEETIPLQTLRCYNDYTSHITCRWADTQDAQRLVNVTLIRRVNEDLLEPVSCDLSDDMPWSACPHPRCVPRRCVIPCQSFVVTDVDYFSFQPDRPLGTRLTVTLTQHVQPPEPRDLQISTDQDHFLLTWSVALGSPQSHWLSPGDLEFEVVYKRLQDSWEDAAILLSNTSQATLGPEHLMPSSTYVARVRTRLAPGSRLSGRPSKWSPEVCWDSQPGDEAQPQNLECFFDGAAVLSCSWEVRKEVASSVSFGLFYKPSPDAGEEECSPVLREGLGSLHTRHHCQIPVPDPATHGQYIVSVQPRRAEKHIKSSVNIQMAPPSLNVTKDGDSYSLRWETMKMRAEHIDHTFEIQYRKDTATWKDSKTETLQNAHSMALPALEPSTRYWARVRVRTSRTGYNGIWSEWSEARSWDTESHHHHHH
Description: as §1, §2, §3

[4] = molecular target: T4, shCD131 T106A (human, UniProt P32927 17-438); experiment: SPR, kinetics, Fab over captured mutant
T4 construct: C-terminal 6xHis
T4 sequence: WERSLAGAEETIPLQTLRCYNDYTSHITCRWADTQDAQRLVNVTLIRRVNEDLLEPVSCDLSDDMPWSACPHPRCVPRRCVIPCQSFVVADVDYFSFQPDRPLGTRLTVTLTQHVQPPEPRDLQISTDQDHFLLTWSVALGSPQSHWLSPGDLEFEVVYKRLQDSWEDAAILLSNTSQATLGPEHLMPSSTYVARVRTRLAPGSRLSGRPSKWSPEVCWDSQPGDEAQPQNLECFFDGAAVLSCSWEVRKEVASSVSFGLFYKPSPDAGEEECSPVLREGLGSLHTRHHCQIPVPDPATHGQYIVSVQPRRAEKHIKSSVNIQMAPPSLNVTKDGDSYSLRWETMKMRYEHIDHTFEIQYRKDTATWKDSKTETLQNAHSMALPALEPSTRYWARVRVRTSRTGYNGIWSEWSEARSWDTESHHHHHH
Description: as §1, §2, §3

binding result [1]: no binding (tested: Fab up to 16 µM) | binding result [2]: no binding (tested: Fab up to 16 µM) | binding result [3]: no binding (tested: Fab up to 16 µM) | Kd [4]: 5.8 nM
B1: 9A2 Fab (Fab, V domains shown)
VH: EVQLLESGGGLVQPGGSLRLSCAASGFTFSHYHMLWVRQAPGKGLEWVSSIRSSGGFTYYADSVKGRFTISRDNSKNTLYLQMNSLRAEDTAVYYCARFYDSFFDIWGQGTMVTVSS
VL: DIQMTQSPSSVSASVGDRVTITCRASQGISSWLAWYQQKPGKAPKLLIYAASSLQSGVPSRFSGSGSGTDFTLTISSLQPEDFATYYCQQANSFPITFGQGTRLEIKR
notes: also called recombinant Fab of 9A2
